Sequences and labels used below:
T1: PUF4 RNA-binding domain (Saccharomyces cerevisiae, UniProt P25339 537-888)
T1 sequence: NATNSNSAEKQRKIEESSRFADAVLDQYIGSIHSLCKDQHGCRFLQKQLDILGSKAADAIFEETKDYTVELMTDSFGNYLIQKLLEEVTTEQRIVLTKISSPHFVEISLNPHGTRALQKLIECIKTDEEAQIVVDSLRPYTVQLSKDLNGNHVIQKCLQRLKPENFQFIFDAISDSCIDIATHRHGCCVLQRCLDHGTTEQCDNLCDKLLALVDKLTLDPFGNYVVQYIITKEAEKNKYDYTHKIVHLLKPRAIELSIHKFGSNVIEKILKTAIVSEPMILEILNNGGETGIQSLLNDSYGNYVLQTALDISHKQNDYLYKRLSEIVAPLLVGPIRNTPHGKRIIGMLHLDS

B1: Id_ii_S4_P3E.2_K3.1_C3.2_[C-2G]_[T-1G]_H3.1_A3.1_F3.1_T3.2_[T9A]_[A10G] (ssRNA)
RNA: UUUGACAACUGAUCGUUCUUUCUGGUGUAUAUAAGUUCUUUCUCGAUCAGUUGUCUUU
B2: Id_ii_S4_P3E.2_K3.1_C3.2_[C-2T]_[T-1C]_H3.1_A3.1_F3.1_T3.2_[T9A]_[A10C] (ssRNA)
RNA: B1 RNA with G24U, G25C, G35C
B3: Id_ii_S4_P3E.2_K3.1_C3.2_[C-2A]_[T-1G]_H3.1_A3.1_F3.1_T3.2_[T9A] (ssRNA)
RNA: B1 RNA with G24A, G35A
B4: Id_ii_S4_P3E.2_K3.1_C3.2_[C-2T]_[T-1A]_H3.1_A3.1_F3.1_T3.2_[T9G]_[A10C] (ssRNA)
RNA: B1 RNA with G24U, G25A, A34G, G35C
B5: Id_ii_S4_P3E.2_K3.1_C3.2_[C-2T]_[T-1A]_H3.1_A3.1_F3.1_T3.2_[T9C]_[A10T] (ssRNA)
RNA: B1 RNA with G24U, G25A, A34C, G35U
B6: Id_ii_S4_P3E.2_K3.1_C3.2_[C-2A]_[T-1G]_H3.1_A3.1_F3.1_T3.2_[T9A]_[A10G] (ssRNA)
RNA: B1 RNA with G24A
B7: Id_ii_S4_P3E.2_K3.1_C3.2_[C-2T]_[T-1A]_H3.1_A3.1_F3.1_T3.2_[T9C]_[A10C] (ssRNA)
RNA: B1 RNA with G24U, G25A, A34C, G35C
B8: Id_ii_S4_P3E.2_K3.1_C3.2_[C-2T]_H3.1_A3.1_F3.1_T3.2_[A10T] (ssRNA)
RNA: B1 RNA with G24U, G25U, A34U, G35U
B9: Id_ii_S4_P3E.2_K3.1_C3.2_[C-2T]_[T-1A]_H3.1_A3.1_F3.1_T3.2_[A10T] (ssRNA)
RNA: B1 RNA with G24U, G25A, A34U, G35U
B10: Id_ii_S4_P3E.2_K3.1_C3.2_[C-2T]_H3.1_A3.1_F3.1_T3.2 (ssRNA)
RNA: B1 RNA with G24U, G25U, A34U, G35A
B11: Id_ii_S4_P3E.2_K3.1_C3.2_[C-2G]_H3.1_A3.1_F3.1_T3.2 (ssRNA)
RNA: B1 RNA with G25U, A34U, G35A
B12: Id_ii_S4_P3E.2_K3.1_C3.2_[C-2T]_H3.1_A3.1_F3.1_T3.2_[T9C]_[A10T] (ssRNA)
RNA: B1 RNA with G24U, G25U, A34C, G35U
B13: Id_ii_S4_P3E.2_K3.1_C3.2_[C-2G]_[T-1G]_H3.1_A3.1_F3.1_T3.2_[A10T] (ssRNA)
RNA: B1 RNA with A34U, G35U
B14: Id_ii_S4_P3E.2_K3.1_C3.2_[C-2T]_H3.1_A3.1_F3.1_T3.2_[T9G]_[A10T] (ssRNA)
RNA: B1 RNA with G24U, G25U, A34G, G35U
B15: Id_ii_S4_P3E.2_K3.1_C3.2_[C-2T]_H3.1_A3.1_F3.1_T3.2_[T9A] (ssRNA)
RNA: B1 RNA with G24U, G25U, G35A
B16: Id_ii_S4_P3E.2_K3.1_C3.2_[C-2T]_[T-1C]_H3.1_A3.1_F3.1_T3.2_[T9A]_[A10T] (ssRNA)
RNA: B1 RNA with G24U, G25C, G35U
B17: Id_ii_S4_P3E.2_K3.1_C3.2_[C-2T]_[T-1C]_H3.1_A3.1_F3.1_T3.2_[T9C] (ssRNA)
RNA: B1 RNA with G24U, G25C, A34C, G35A
B18: Id_ii_S4_P3E.2_K3.1_C3.2_[C-2T]_[T-1C]_H3.1_A3.1_F3.1_T3.2_[T9C]_[A10T] (ssRNA)
RNA: B1 RNA with G24U, G25C, A34C, G35U
B19: Id_ii_S4_P3E.2_K3.1_C3.2_[C-2T]_[T-1C]_H3.1_A3.1_F3.1_T3.2_[T9G]_[A10T] (ssRNA)
RNA: B1 RNA with G24U, G25C, A34G, G35U
B20: Id_ii_S4_P3E.2_K3.1_C3.2_[C-2T]_H3.1_A3.1_F3.1_T3.2_[T9A]_[A10C] (ssRNA)
RNA: B1 RNA with G24U, G25U, G35C
B21: Id_ii_S4_P3E.2_K3.1_C3.2_[C-2G]_H3.1_A3.1_F3.1_T3.2_[T9C]_[A10C] (ssRNA)
RNA: B1 RNA with G25U, A34C, G35C
B22: Id_ii_S4_P3E.2_K3.1_C3.2_[C-2T]_H3.1_A3.1_F3.1_T3.2_[T9C]_[A10C] (ssRNA)
RNA: B1 RNA with G24U, G25U, A34C, G35C
B23: Id_ii_S4_P3E.2_K3.1_C3.2_[C-2G]_[T-1C]_H3.1_A3.1_F3.1_T3.2_[T9C] (ssRNA)
RNA: B1 RNA with G25C, A34C, G35A
B24: Id_ii_S4_P3E.2_K3.1_C3.2_[C-2T]_H3.1_A3.1_F3.1_T3.2_[A10C] (ssRNA)
RNA: B1 RNA with G24U, G25U, A34U, G35C
B25: Id_ii_S4_P3E.2_K3.1_C3.2_[C-2G]_[T-1G]_H3.1_A3.1_F3.1_T3.2_[T9A]_[A10T] (ssRNA)
RNA: B1 RNA with G35U
B26: Id_ii_S4_P3E.2_K3.1_C3.2_[C-2T]_[T-1G]_H3.1_A3.1_F3.1_T3.2_[T9A]_[A10T] (ssRNA)
RNA: B1 RNA with G24U, G35U
B27: Id_ii_S4_P3E.2_K3.1_C3.2_[C-2T]_[T-1A]_H3.1_A3.1_F3.1_T3.2_[T9A]_[A10C] (ssRNA)
RNA: B1 RNA with G24U, G25A, G35C
B28: Id_ii_S4_P3E.2_K3.1_C3.2_[C-2G]_H3.1_A3.1_F3.1_T3.2_[T9A]_[A10T] (ssRNA)
RNA: B1 RNA with G25U, G35U
B29: Id_ii_S4_P3E.2_K3.1_C3.2_[C-2T]_[T-1C]_H3.1_A3.1_F3.1_T3.2_[A10T] (ssRNA)
RNA: B1 RNA with G24U, G25C, A34U, G35U
B30: Id_ii_S4_P3E.2_K3.1_C3.2_[C-2G]_[T-1C]_H3.1_A3.1_F3.1_T3.2_[T9C]_[A10C] (ssRNA)
RNA: B1 RNA with G25C, A34C, G35C
B31: Id_ii_S4_P3E.2_K3.1_C3.2_[C-2T]_[T-1A]_H3.1_A3.1_F3.1_T3.2_[T9A] (ssRNA)
RNA: B1 RNA with G24U, G25A, G35A

Positions count from the first letter of the chain named. Names and notes keep the numbering of the source.

In this series the target is T1, PUF4 RNA-binding domain. As to the kind of experiment: Mg; RNA-MaP; 20 mM Na-HEPES pH 7.4, 30 mM KOAc, 0.75 mM MgCl2, 0.1% Tween-20, 5% glycerol, 0.1 mg/mL BSA, 2 mM DTT; 25 C; 0.0125-409.6 nM protein. To be noted: tags: N-His6-TEV cleaved; C-SNAP kept, Cy3B-labelled; label: tethered on chip by stalled RNA polymerase.
UCUCUUUGCUUUAUUAUCUCUU (ssRNA) [Ib_S1_P5E.1_K5.1_C5.1_H5.1_[T3C]_[A4T]_A5.1_F5.1_T5.1]: the Kd – broadly, a measure of binding affinity in units of concentration – is above 2300 nM. Consider UCUCUUUGUAUGAUUAUCUCUU (ssRNA) [Ia_S1_P5E.1_K5.1_C5.1_H5.1_A5.1_[T6G]_F5.1_T5.1], for which the Kd amounted to 23 nM.

Consider ACAAACCUACACUUAUUAAAACAAAC (ssRNA) [Id_ii_S3_P5E.4_K5.3_C5.2_H5.3_A5.1_F5.1_T5.2_[T11A]], for which the Kd is above 2300 nM. Regarding UCUCUUUGACUUAUUAUCUCUU (ssRNA) [Ib_S1_P5E.1_K5.1_C5.1_H5.1_[T3A]_[A4C]_A5.1_F5.1_T5.1], the Kd was above 2300 nM.

The molecule ACAAACCUACACUUAUUAUUACAAAC (ssRNA) [Id_ii_S3_P5E.4_K5.3_C5.2_H5.3_A5.1_F5.1_T5.2_[A12T]] had a Kd above 2300 nM. With ACAAACCUACACUUAUUAUGACAAAC (ssRNA) [Id_ii_S3_P5E.4_K5.3_C5.2_H5.3_A5.1_F5.1_T5.2_[A12G]], the equilibrium dissociation constant (Kd) is above 2300 nM. With B1, the dissociation constant Kd came out at 9.31 nM. The molecule B2 gave a Kd of 2.96 nM. With B3, the Kd amounted to 10.8 nM. In turn, B4 came in with a Kd of 6.05 nM. Turning to B5, the dissociation constant Kd came out at 6.04 nM. B6 yielded a Kd of 9.13 nM. Molecule B7 yielded a Kd of 6 nM. For the molecule B8, binding was put at a Kd of 1.75 nM. B9 returned a Kd of 5.5 nM.

As to B10, the Kd came out at 2.14 nM. In turn, B11 showed a Kd of 2.31 nM. B12 had a Kd of 2.81 nM. The molecule B13 returned a Kd of 3.9 nM. As to B14, the Kd is 2.14 nM. For B15, binding was put at a Kd of 6.6 nM. B16 had an equilibrium dissociation constant (Kd) of 1.51 nM.

Molecule B17 had a dissociation constant (Kd) of 9.13 nM.

B18 gave a Kd of 2.78 nM.

B19 came in with a Kd of 3.63 nM. The molecule B20 displayed a Kd of 4.42 nM. B21 yielded a Kd of 21.8 nM. Turning to B22, the Kd is 2.87 nM. Turning to B23, the Kd is 46.9 nM. For B24, the Kd worked out at 1.81 nM. As for B25, the affinity, expressed as Kd, was 5.5 nM. This Kd is about 3-fold higher than that of the molecule before. The same measure for B26: 1.68 nM. The molecule B27 gave a dissociation constant (Kd) of 15.9 nM. The same measure for B28: 3.41 nM. B29 had a Kd of 1.29 nM. In the case of B30, the Kd stood at 10.5 nM. Compared with the last molecule, the Kd is about 8.1-fold higher. Take B31: binding was characterised by a dissociation constant (Kd) of 20.1 nM. This Kd is about 1.9-fold higher than that of the molecule before.

Turning to UCUCUUUAUUUUAUUAUCUCUU (ssRNA) [Ib_S1_P5E.1_K5.1_C5.1_H5.1_[G2A]_[A4T]_A5.1_F5.1_T5.1], the Kd turned out to be 1550 nM. In turn, ACAAACCUACACUUAUUAUCACAAAC (ssRNA) [Id_ii_S3_P5E.4_K5.3_C5.2_H5.3_A5.1_F5.1_T5.2_[A12C]] came in with a Kd above 2300 nM.

In the case of ACAAACCUACACUUAUUACUACAAAC (ssRNA) [Id_ii_S3_P5E.4_K5.3_C5.2_H5.3_A5.1_F5.1_T5.2_[T11C]_[A12T]], the Kd is above 2300 nM. For UCUCUUUGCCUUAUUAUCUCUU (ssRNA) [Ib_S1_P5E.1_K5.1_C5.1_H5.1_[T3C]_[A4C]_A5.1_F5.1_T5.1], the Kd was above 2300 nM. ACAAACCUACACUUAUUAACACAAAC (ssRNA) [Id_ii_S3_P5E.4_K5.3_C5.2_H5.3_A5.1_F5.1_T5.2_[T11A]_[A12C]] registered a Kd above 2300 nM.

The record behind these values is publication PMC9352680, “A comprehensive thermodynamic model for RNA binding by the Saccharomyces cerevisiae Pumilio protein PUF4”.
